Assay results reported in publication PMC4209800.

Experiments:
[1] = biological target: human FcγRIIIa of allotype 158F, GPI-anchored (human) (UniProt P08637); experiment: flow cytometry on cells; IgG pre-complexed with equimolar goat F(ab')2 against its light chain (anti-κ for Fog-1, anti-λ for B2), on CHO cells expressing a single human FcγRII or FcγRIII; complexes detected with FITC anti-goat IgG; mean fluorescence of ≥12 000 cells
[2] = biological target: human FcγRIIIa of allotype 158V, GPI-anchored (human); experiment: as above

UniProt P08637, sequence (P08637 17-254): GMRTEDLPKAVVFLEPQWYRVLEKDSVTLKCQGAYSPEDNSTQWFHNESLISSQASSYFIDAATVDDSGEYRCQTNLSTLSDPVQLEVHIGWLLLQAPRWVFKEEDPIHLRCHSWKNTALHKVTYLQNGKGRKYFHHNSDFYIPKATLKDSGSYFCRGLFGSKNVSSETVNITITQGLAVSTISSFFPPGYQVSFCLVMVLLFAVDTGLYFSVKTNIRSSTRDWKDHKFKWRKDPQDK

fold lower binding than G1 [1]: 100 fold
fold lower binding than G1 [2]: 50 fold
Substance: B2 G1Δnab (antibody)
